In patent US12291562B2, “Reagents and assays using modified integrin domains” (Rush University Medical Center, priority 2019, dated 2025):

Key:
[1] = Phage ELISA on blocked well; type: binding; details: Table 5, scFv phage diluted 1:5
Description: (§1) After 2 rounds of enrichment against the primary target, positive binders were identified by phage ELISA and analyzed by restriction mapping & sequencing for identification of unique clones. Small scale phage growths were diluted 1:5 in TBS+casein. Nunc Maxi-Sorp strip wells were coated at ˜5 μg/ml of each test protein overnight at 4° C. and blocked with TBS+casein. The diluted phage were applied and allowed to bind for 1 hour with shaking. The wells were washed 4 times with TBS+0.05% Tween20 and twice with TBS. Bound phage were detected by incubation for 1 hour with anti-M13-HRP and after washing as above, developed with TMB. Absorbance at 450 nm was read after acidification of the wells.

[2] = system: CD11b A-domain polypeptides; test: Conformation selectivity in counterscreen and dilution series ELISA; type: binding, human; details: conclusion from ELISA data
Description: as §1
High binding clones were included in a counterscreen ELISA against other CD11b A-domain polypetides which produced the following data:
To confirm binding, a dilution series experiment was carried out. Select clones were subjected to a dilution series which generated the following data: […]

[3] = molecular target: T1, BZ348014 antigen (Homo sapiens, UniProt P11215, D258A/F291S/F318G); test: VHH phage display library screening; type: binding
T1 construct: MGS-8XHis-SG (N); TEV site (ENLYFQ) followed by GS linker (N); made in house; host or cells: E. coli BL21DE3 (pET-11d)
Description: A panning and enrichment of the BZ348014 antigen against a VHH phage display library (Neoclone, LLC, Madison, WI) was also conducted in an identical manner to the human scFv phage display library screen. One unique binder was identified, clone 8.

[4] = molecular target: T2, BZ348014 (CD11b A-domain CD11bA-D242A/F275S/F302G) (Homo sapiens, UniProt P11215, D258A/F291S/F318G); test: Phage ELISA on BZ348014; type: binding; details: Table 5; scFv phage diluted 1:5; after 2 rounds of enrichment
T2 construct: MGS-8XHis-SG (N); TEV site (ENLYFQ) followed by GS linker (N); made in house; host or cells: E. coli BL21DE3 (pET-11d)
From the text: A naïve human scFv phage display library and VHH phage display library were screened against several integrin targets of interest. The screen involved phage ELISA followed by sequencing.
Example experiment: A diverse naïve human scFv phage display library (Neoclone, LLC, Madison, WI) was enriched on BZ348014.
as §1

T2 sequence (P11215 148-337 D258A/F291S/F318G): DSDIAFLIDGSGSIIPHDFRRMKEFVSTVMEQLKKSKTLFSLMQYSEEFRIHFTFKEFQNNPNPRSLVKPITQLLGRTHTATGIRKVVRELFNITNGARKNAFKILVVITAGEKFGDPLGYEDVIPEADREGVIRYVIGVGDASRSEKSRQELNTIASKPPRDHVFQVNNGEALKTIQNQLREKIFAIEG
T1 sequence (P11215 148-337 D258A/F291S/F318G): as above

B1: Clone 13: phage clone, VH only, SEQ ID NO: 66 (antibody, V domains shown)
VH: EVQLLESGGGLVQPGGSLRLSCAASGFTFSSDLMSWVRQAPGKGLEWVSAISGSGGSTYYADSVKGRFTISRDNSKNTLYLQMNSLRAEDTAVYYCAKNEVIFDYWGQGTLVTVSSASTKGLSMFDYWGQGTKVEIK
modifications: Clone 13
**Q.** Which “ELISA absorbance at 450 nM, Blocked well” value [1] does the source give for B1 here?
**A.** 0.043

**Q.** What about the “Selectivity of binding to CD11b A-domain polypeptides mutationally stabilized in active conformation over the other conformations” value (shortened to “Selectivity of binding”) [2] of the same molecule?
**A.** bound selectively

B2: Clone 5: scFv phage clone, VL-Linker-VH, SEQ ID NO: 63 (protein)
scFv: SSELTQDPAVSVALGQTVRITCQGDSLRSYYASWYQQKPGQAPVLVIYGKNNRPSGIPDRFSGSTSGNFASLTITGAQAEDGADYYCHSRDSSGNHLVFGGGTKLTVLGEGKSSGSGSESKASEVQLVQSGAEVKKPGESLKISCKGSGYSFTSYWIGWVRQMPGKGLEWMGIIYPGDSDTRYSPSFQGQVTISADKSISTAYLQWSSLKASDTAMYYCARRARGAFDIWGQGTLVTVSS
modifications: Clone 5
**Q.** What does the source list for B2?
**A.** ELISA absorbance at 450 nM, Blocked well [1]: 0.045; Selectivity of binding to CD11b A-domain polypeptides mutationally stabilized in active conformation over the other conformations [2]: limited or no selectivity

B3: Clone 8: clone from naïve human scFv phage display library enriched on BZ348014 (Table 5); not the VHH clone 8 (protein)
scFv: DVQLVESGGGLVQPGGSLRLSCTASGFTFSNYAMNWVRQAPGKGLEWVSVISSSGSRRNYADSVKGRFTISRDNAKSTLYLQMNSLKPEDTAVYYCAKVRDAGYYRWNLNDLDYRGQGTQVTVSS
modifications: Clone 8
**Q.** Which “Binder identified by panning and enrichment against BZ348014 antigen” value [3] does the source give for B3 here?
**A.** unique binder

**Q.** What about the “ELISA absorbance at 450 nM, Blocked well” value [1] of the same molecule?
**A.** 0.047

**Q.** And the “ELISA absorbance at 450 nM, BZ348014” value [4]?
**A.** 0.060

B4: Clone 6: scFv phage clone, VL-linker-VH, SEQ ID NO: 64 (protein)
scFv: QSVLTQPPSASGTPGQRVTISCSGSSSNIGSNYVSWYQQLPGTAPKLLIYDNNKRPSGIPDRFSGSKSGTSATLGITGLQTGDEADYYCGTWDSSLSALYVFGAGTKLTVLGEGKSSGSGSESKASQVQLQESGPGLVKPSETLSLTCSVSGGSTSSYYWSWIRQPPGKGLEWIGYISNSGSTNYNPSLKSRVTMSIDTSNNQFSLKLSSVTAADTAVYYCASHLGATWRWGQGTLVTVSS
modifications: Clone 6
**Q.** For B4, which “ELISA absorbance at 450 nM, Blocked well” value [1] is on record?
**A.** 0.041

**Q.** And the “Selectivity of binding” value [2]?
**A.** bound selectively

B5: Clone 14: scFv phage clone, VK-Linker-VH, SEQ ID NO: 67 (protein)
scFv: DVVMTQSPLSLPATLGQPASISCRSSQSLVYTDGNTYLNWFQQRPGQSPRRLIYKVSNRDSGVPDRFSGSGSGTHFTLKISRVEAEDVGVYYCMQGTHWPPTFGQGTKVEIKEGKSSGSGSESKASEVQLVQSGAEVKKPGASVKVSCKASGGTFSSYAISWVRQAPGQGLEWMGGIIPIFGTANYAQKFQGRVTITADESTSTAYMELSSLRSEDTAVYYCASSGVDYWGQGTLVTVSS
modifications: Clone 14
**Q.** Which “ELISA absorbance at 450 nM, Blocked well” value [1] does the source give for B5 here?
**A.** 0.044

**Q.** And the “Selectivity of binding” value [2]?
**A.** bound selectively

B6: Clone 11: scFv phage clone, VH-linker-VK, SEQ ID NO: 65 (protein)
scFv: EVQLVESGGGVVQPGRSLRLSCAATGFTFSNYGIHWVRQAPGKGLEWVAVTSYDGSNKYYADSVKGRFTISRDNSKNTLYLQMNSLRVEDTAVYYCAKDRGYYTYVFDYWGRGTLVTVSSGEGKSSGSGSESKASDVVMTQTPLSLPVTPGEPAAISCRSSQSLLHSNGYNYLDWYLQKPGQSPQLLIYLGSNRASGVPDRFSGSGSGTDFTLKISRVEAEDVGVYYCMQAVQTVD
modifications: Clone 11
**Q.** Which results are given for B6?
**A.** ELISA absorbance at 450 nM, Blocked well [1]: 0.043; ELISA absorbance at 450 nM, BZ348014 [4]: 0.628
